In article PMC4818849, “In vitroassembly of the bacterial actin protein MamK from ‘CandidatusMagnetobacterium casensis’ in the phylumNitrospirae” (Protein & Cell, 2016):

Substrate: Nc1ncnc2c1ncn2[C@@H]1O[C@H](COP(=O)(O)OP(=O)(O)OP(=O)(O)O)[C@@H](O)[C@H]1O
Assay: ATPase, malachite green phosphate release, Lineweaver-Burk plot
Format: biochemical, Magnetobacterium casense (SeqCode)
Conditions: assay buffer of b46: 20 mmol/L Tris-HCl pH 8.0, 0.2 mmol/L MgCl2, 50 mmol/L NaCl, 37°C, kinetic details in supplement
Text: ATPase, malachite green phosphate release, Lineweaver-Burk plot on MamK from 'Candidatus Magnetobacterium casensis' (Mcas MamK) | we calculated the Vmax and Km of the ATPase activity as […]

B1: MamK from 'Candidatus Magnetobacterium casensis' (Mcas MamK) (Magnetobacterium casense (SeqCode)) (protein)
chain: MTKTKILNIGIDLGTSRSVIACDNGVRTFVPSYVGFPKDAVSRKMFGRDVIFGDEAIKHRMALNLFRPFDKGMIKYADTNPESKEYKNALYVAKALLQHLVDLAKEGDQERGVDYIVRGVIGAPALASRKNRKALLDVARGILDGVMISSEPFTVAYGLNLLSNALIIDIGAGTVDLCRMHGTIPTDEDQITTFKAGDYVDQAFYDLITKKYKDVNLTINMVKKFKEENAFISSQGERVFIEVPVKGKPEKRDITDELRQACRMIVPDIVEGIRKLIAEYDPEFQNNLKQNVVLAGGGSQIIGLRKEIEDYMIETLGYGKVIKIEEPLFAGANGAMMLCKDMPDEYWDEVSKR
notes: full-length mamK from Mcas genomic DNA in pET28a and pET22b, E. coli C43 (DE3); His tag removed leaving three N-terminal residues (tagged forms also examined); filament-forming
  Km: 71.02 µM
  kcat: 0.0633 s⁻¹
